“Also recorded” adds a separate entry of the source.
Experiments:
PTP HSCF = biological target: T1, PTP HSCF (Mus musculus, UniProt Q61152); test: In vitro GST pull-down binding of PST PIP forms to PTP HSCF
T1 construct: the PST (and C-terminal homolog) of PTP HSCF (amino acids 304-453); made in house; host or cells: E. coli DH5-alpha
T1 sequence (Q61152 304-453): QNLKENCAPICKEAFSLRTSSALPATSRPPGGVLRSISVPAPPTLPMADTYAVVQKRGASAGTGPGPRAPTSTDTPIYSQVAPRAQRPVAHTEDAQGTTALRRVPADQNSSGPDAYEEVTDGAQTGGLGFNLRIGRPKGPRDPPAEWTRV
Method: The binding was carried out according to the method of Wong and Johnson (Wong et al., J. Biol. Chem. 271(35):20981-20984 (1996)). Briefly, 1 μg of plasmid with either the PSTPIP protein or PTP HSCF under the control of the Sp6 promoter was in vitro transcribed/translated using the Promega™ TnT Rabbit Reticulocyte™ system. Samples were diluted in 50 mM HEPES, pH 7.2, 1% triton X 100, 10% glycerol, 100 mM NaCl, 5 mM EDTA and 2 μg/ml each of leupeptin, pepstatin, aprotinin, and PMSF. […] This was reacted for 1 hour at 4° C. and then the resin washed 6 times in HEPES/Triton binding buffer before SDS gel electrophoresis. The peptides were synthesized on an automated Milligen 9050 Peptide Synthesizer using standard solid phase chemistry with FMOC protected amino acids on a p-alkoxybenzyl alcohol resin. Dried peptides were re-suspended in the HEPES/Triton Binding buffer at a concentration of 10 mg/ml. Peptide inhibition was performed by adding the peptide first to the in vitro translation product and then the GST-fusion followed by the GSH-Sepharose. The binding/washing steps were as previously described. The peptides synthesized and the PTPs they were derived from were: • PXXP-HSCF: 432[…]451 (PTP HSCF) (SEQ ID NO:20), • PXXP-PEP: 782GFGNRFSKPKGPRNPPSAW800 (PTP PEP) (SEQ ID NO:21), • PXXP-PEST: 761[…]780 (PTP PEST) SEQ ID NO:22), • PXXP-CONTROL: 334[…]353 (PTP HSCF) (SEQ ID NO:23).
In vitro binding analyses between various PTP HSCF and PST PIP constructs were performed as previously described (Spencer et al, (1997), supra). Briefly, plasmids were transcribed and translated in vitro using the TnT Rabbit Reticulocyte Lysate System (Promega). Samples were diluted in 50 mM HEPES, pH 7.2, 1% triton X-100, 10% glycerol, 100 mM NaCl, and 2 μg/ml each of leupeptin, pepstatin, aprotinin and PMSF (lysis buffer). Samples were than reacted with GST fusion proteins at various concentrations, and the bound proteins were centrifuged using glutathione-sepharose beads and analyzed on SDS polyacrylamide gels. C-terminally-derived peptide inhibition studies were performed by incubating the GST fusion protein binding reactions in the presence of 10 μg/ml of the indicated peptides. Peptides were produced by FMOC-protected amino acids as previously described (Spencer et al, (1997), supra). In vivo interactions between various forms of PTP HSCF and PST PIP were also performed as previously described (Spencer et al, (1997), supra). Briefly, COS cells were transfected with various constructs, and after 48 hours, lysates were prepared and immunoprecipitated with antibodies to either the FLAG epitope contained at the C-terminus of PST PIP or an HA epitope contained at the N-terminus of PTP HSCF. The resultant blots were probed with anti-FLAG to detect PST PIP, anti-HA to detect PTP HSCF or anti-phosphotyrosine to detect levels of this modified amino acid in each protein.

CHO cells = test: Confocal microscopy of PST PIP forms expressed in CHO cells; assay type: cell-based, Chinese hamster; conditions: transfected CHO cells
Method: Confocal microscopy was performed as previously described (Spencer et al, (1997), supra). Briefly, CHO cells in chamber slides were transfected using Lipofectamine and the indicated plasmids. 48 hours later, cells were fixed in formaldehyde and stained with an anti-FLAG epitope specific antibody (Kodak) and Fluorescein-Phalloidin (Molecular Probes). Anti-Flag stained cells were washed and stained with Cy3-conjugated sheep anti-mouse IgG. Stained cells were observed using Molecular Dynamics Confocal Microscope™ (2001) and analyzed with ImageSpace™ software (Molecular Dynamics).

B1: W232A mutant of PST PIP, C-terminal FLAG (other)
chain: MMAQLQFRDAFWCRDFTAHTGYEVLLQRLLDGRKMCKDVEELLRQRAQAEERYGKELVQIARKAGGQTEMNSLRTSFDSLKQQTENVGSAHIQLALALREELRSLEEFRERQKEQRKKYEAIMDRVQKSKLSLYKKTMESKKAYDQKCRDADDAEQAFERVSANGHQKQVEKSQNKAKQCKESATEAERVYRQNIEQLERARTEWEQEHRTTCEAFQLQEFDRLTILRNALAVHCNQLSMQCVKDDELYEEVRLTLEGCDVEGDINGFIQSKSTGREPPAPVPYQNYYDREVTPLIGSPSIQPSCGVIKRFSGLLHGSPKTTPSAPAASTETLTPTPERNELVYASIEVQATQGNLNSSAQDYRALYDYTAQNSDELDISAGDILAVILEGEDGWWTVERNGQRGFVPGSYLEKLDYKDDDDK
notes: In vitro translated or expressed in COS cells; also called W232A PST PIP; PST PIP with an alanine replacement mutation at tryptophan232
binding of in vitro translated PST PIP forms to GST fusion of C-terminal 149 amino acids of PTP HSCF (PTP HSCF): complete loss of binding; also recorded: abolishes the interaction
cellular localization of PST PIP forms (assay for correct folding) (CHO cells): indistinguishable from the wild type protein

B2: GST-PSTPIP (GST fusion of full-length PSTPIP, amino acids 2-415) (other)
chain: MAQLQFRDAFWCRDFTAHTGYEVLLQRLLDGRKMCKDVEELLRQRAQAEERYGKELVQIARKAGGQTEMNSLRTSFDSLKQQTENVGSAHIQLALALREELRSLEEFRERQKEQRKKYEAIMDRVQKSKLSLYKKTMESKKAYDQKCRDADDAEQAFERVSANGHQKQVEKSQNKAKQCKESATEAERVYRQNIEQLERARTEWEQEHRTTCEAFQLQEFDRLTILRNALWVHCNQLSMQCVKDDELYEEVRLTLEGCDVEGDINGFIQSKSTGREPPAPVPYQNYYDREVTPLIGSPSIQPSCGVIKRFSGLLHGSPKTTPSAPAASTETLTPTPERNELVYASIEVQATQGNLNSSAQDYRALYDYTAQNSDELDISAGDILAVILEGEDGWWTVERNGQRGFVPGSYLEKL
notes: Made in DH5-alpha bacteria from pGEX4T-2; also called GST-full-length PSTPIP; GST PTP PIP; not shown: glutathione S-transferase encoded by pGEX-4T-2 (Pharmacia)
precipitation of in vitro translated PTP HSCF by GST fusions of PSTPIP or its domains (PTP HSCF; ~1 microgram per ml GST fusion protein): high degree of specificity

B3: PSTPIP: murine PST Phosphatase Interacting Protein, 415 residues (SEQ ID NO:1) (protein)
chain: MMAQLQFRDAFWCRDFTAHTGYEVLLQRLLDGRKMCKDVEELLRQRAQAEERYGKELVQIARKAGGQTEMNSLRTSFDSLKQQTENVGSAHIQLALALREELRSLEEFRERQKEQRKKYEAIMDRVQKSKLSLYKKTMESKKAYDQKCRDADDAEQAFERVSANGHQKQVEKSQNKAKQCKESATEAERVYRQNIEQLERARTEWEQEHRTTCEAFQLQEFDRLTILRNALWVHCNQLSMQCVKDDELYEEVRLTLEGCDVEGDINGFIQSKSTGREPPAPVPYQNYYDREVTPLIGSPSIQPSCGVIKRFSGLLHGSPKTTPSAPAASTETLTPTPERNELVYASIEVQATQGNLNSSAQDYRALYDYTAQNSDELDISAGDILAVILEGEDGWWTVERNGQRGFVPGSYLEKL
modifications: Mus Musculus
binding of in vitro translated PST PIP forms to GST fusion of C-terminal 149 amino acids of PTP HSCF (PTP HSCF): capable of interacting
cellular localization of PST PIP forms (assay for correct folding) (CHO cells): predominantly co-localized with the cortical actin cytoskeleton

Reference: patent US6887705B1, “Tyrosine phosphorylated cleavage furrow-associated proteins (PSTPIPs)” (Genentech, Inc., priority 1997, dated 2005)
